Results on 1 substance are retold here after patent US20240374644A1.

The target in the assay is CD8 on peripheral blood mononuclear cells (human). As to the kind of experiment: flow cytometry on PBMCs, anti-GST antibody.
Chain of CD8 on peripheral blood mononuclear cells (human) (P01732 22-235, chain 1 of 2): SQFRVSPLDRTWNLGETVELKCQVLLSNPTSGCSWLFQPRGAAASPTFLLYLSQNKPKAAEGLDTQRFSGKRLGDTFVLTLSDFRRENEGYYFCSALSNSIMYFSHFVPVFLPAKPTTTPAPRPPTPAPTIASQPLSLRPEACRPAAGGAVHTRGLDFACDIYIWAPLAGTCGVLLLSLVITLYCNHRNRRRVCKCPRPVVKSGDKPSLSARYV
Chain of CD8 on peripheral blood mononuclear cells (human) (P10966 22-210, chain 2 of 2, further chain): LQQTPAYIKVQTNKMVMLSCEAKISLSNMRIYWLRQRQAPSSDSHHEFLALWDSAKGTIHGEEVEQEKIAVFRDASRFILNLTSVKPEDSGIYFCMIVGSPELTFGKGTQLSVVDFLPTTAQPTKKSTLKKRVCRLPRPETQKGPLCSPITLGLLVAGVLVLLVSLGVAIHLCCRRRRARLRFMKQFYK

In the case of “CD8 BiTE (K8Bi), anti-HERV-K 6H5 scFv linked to anti-CD8 (OKT8) scFv (bispecific antibody)”, the percentage of peripheral blood mononuclear cells positive (anti-GST) lay within 48.8 to 55.2%.
